Laboratory results published in patent US20200354427A1 (Eli Lilly, published 2020).

T1: human RANKL (receptor activator of nuclear factor kappa-B ligand) (human, UniProt O14788 140-317, limits assumed)
T1 sequence (looked up): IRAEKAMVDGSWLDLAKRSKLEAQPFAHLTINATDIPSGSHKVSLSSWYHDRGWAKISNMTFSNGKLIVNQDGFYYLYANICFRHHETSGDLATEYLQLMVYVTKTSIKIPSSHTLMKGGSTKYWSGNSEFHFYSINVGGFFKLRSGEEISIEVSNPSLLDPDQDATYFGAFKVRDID

B1: RANKL neutralizing antibody (an IgG4 RANKL mAb having the same HC and LC amino acid sequences as the mAb portion of the exemplified fusion compound) (antibody, V domains shown)
VH: QVQLVQSGAEVKKPGSSVKVSCKASGYAFTNYYIEWVRQAPGQGLEWMGVINPGWGDTNYNEKFKGRVTITADKSTSTAYMELSSLRSEDTAVYYCARRDTAHGYYALDPWGQGTTVTVSS
VL: DIQMTQSPSSLSASVGDRVTITCKASQNVGTNVAWYQQKPGKAPKLLIYSASYRYSGVPSRFSGSGSGTDFTLTISSLQPEDFATYYCQQYWDYPLTFGGGTKVEIKR

Assays:
[1] = target: PTH receptor (PTHR1 receptor) endogenously expressed by rat osteosarcoma UMR-106 cells (rat) (UniProt P25961); test: cell-based or functional assay
[2] = target: T1, human RANKL (receptor activator of …); test: cell-based or functional assay

Chain of PTH receptor (PTHR1 receptor) endogenously expressed by rat osteosarcoma UMR-106 cells (rat) (P25961 27-591): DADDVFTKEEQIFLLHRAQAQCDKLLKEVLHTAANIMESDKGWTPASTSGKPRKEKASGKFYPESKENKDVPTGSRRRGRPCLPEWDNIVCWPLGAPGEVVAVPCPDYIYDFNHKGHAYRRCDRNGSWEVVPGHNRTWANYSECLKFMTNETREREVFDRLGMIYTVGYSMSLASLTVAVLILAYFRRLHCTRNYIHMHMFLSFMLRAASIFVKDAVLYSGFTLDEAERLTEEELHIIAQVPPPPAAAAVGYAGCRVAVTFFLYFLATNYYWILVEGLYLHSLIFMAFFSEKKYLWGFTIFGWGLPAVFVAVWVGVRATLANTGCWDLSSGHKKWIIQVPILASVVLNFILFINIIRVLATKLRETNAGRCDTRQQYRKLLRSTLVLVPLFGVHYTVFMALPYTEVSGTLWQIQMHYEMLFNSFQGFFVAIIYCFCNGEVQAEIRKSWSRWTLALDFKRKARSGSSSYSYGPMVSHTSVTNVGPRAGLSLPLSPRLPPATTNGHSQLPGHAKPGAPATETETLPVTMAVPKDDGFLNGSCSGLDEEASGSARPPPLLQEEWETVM

Molecule | EC50 (nM); PTHR1 activation, CRE-regulated luciferase luminescence in UMR-106 cells [1] [nM] | IC50 (nM) hRANKL; neutralization of RANKL-induced NF-kB driven luciferase luminescence [2] [nM]
PTH peptide (a 38 amino acid parathyroid hormone peptide) | 5.6 | –
B1 | – | 0.069
